Laboratory results taken from patent publication US20090155853A1.

Biological target: human coxsackie virus B adenovirus receptor (CAR) expressed on CHO cells (CHO-hCAR) (human) (UniProt P78310)
Assay: cell-based or functional assay

UniProt P78310, sequence (P78310 20-365): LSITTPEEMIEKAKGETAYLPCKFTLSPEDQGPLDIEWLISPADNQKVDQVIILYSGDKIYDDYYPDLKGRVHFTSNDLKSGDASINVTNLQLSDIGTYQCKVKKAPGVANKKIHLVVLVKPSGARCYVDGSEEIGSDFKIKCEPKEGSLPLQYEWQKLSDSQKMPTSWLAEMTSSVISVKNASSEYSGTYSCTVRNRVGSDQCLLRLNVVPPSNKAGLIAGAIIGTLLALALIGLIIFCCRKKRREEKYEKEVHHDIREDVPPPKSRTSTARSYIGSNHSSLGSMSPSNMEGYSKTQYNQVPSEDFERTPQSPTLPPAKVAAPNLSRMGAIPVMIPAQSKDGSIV

“HMG-PB/Fiber complex (HMG-PB plus Fiber protein) (from UniProt P12538 1-571; P11818 1-581)” showed a luciferase reporter plasmid delivery (luciferase gene expression) in CHO-hCAR against parental CHO cells of 6 times.
